T1: Human CD19-his protein (human, UniProt P15391 20-291)
T1 construct: bought protein; also called human CD19 protein; recombinant human CD19-His; not shown: His tag
T1 sequence (looked up): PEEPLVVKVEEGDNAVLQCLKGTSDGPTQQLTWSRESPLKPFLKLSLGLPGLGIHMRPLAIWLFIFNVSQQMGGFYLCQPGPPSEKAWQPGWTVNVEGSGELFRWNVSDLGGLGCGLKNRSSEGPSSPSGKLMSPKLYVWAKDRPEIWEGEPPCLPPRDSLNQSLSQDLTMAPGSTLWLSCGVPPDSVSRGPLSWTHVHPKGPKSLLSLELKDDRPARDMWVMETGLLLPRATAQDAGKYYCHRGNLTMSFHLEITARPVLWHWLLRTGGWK

T2: murine CD19 protein (murine, UniProt P25918 17-287, limits assumed)
T2 construct: bought protein; also called commercial murine CD19
T2 sequence (looked up): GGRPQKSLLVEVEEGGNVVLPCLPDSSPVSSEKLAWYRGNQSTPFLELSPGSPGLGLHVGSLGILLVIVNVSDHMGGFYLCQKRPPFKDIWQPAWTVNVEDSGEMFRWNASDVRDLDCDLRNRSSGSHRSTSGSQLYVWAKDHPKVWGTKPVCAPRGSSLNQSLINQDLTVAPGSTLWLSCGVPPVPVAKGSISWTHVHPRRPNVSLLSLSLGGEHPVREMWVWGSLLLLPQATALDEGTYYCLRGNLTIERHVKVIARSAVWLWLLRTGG

T3: human CD19 exon1-3-his protein (human, UniProt P15391 20-186, limits assumed)
T3 construct: made in HEK293E cells; also called membrane-distal end; not shown: His tag
T3 sequence (looked up): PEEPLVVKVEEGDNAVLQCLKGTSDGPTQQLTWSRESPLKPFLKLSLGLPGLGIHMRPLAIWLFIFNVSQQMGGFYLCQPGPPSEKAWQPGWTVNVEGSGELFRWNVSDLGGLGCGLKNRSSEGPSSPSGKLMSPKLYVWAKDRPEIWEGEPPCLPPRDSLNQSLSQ

B1: F3.133.14 (antibody, human IgG1, V domains shown)
VH: QVQLQQPGAELVMPGASVKLSCKASGYTFTNYWMHWVKQRPGQGLEWIGEIDPSDYYANYNQKFKGKATLTVDKSSSTAYMQLSSLTSEDSAVYYCARSHYYANSYNYWGQGTTLTVSS
VL: EIELTQSPTTMAASPGEKITITCSASSSISSDYLHWYQQKPGFSPKLLIYRTSNLASGLPARFSGSGSGTSYSLTIGTMEAEDVATYYCQQGSSVPRMLTFGAGTKLELK
notes: human-murine chimeric antibody, human IgG1
B2: F4.21.2 (antibody, human IgG1, V domains shown)
VH: QVQLKQSGPGLVQPSQSLSITCTVSGFSLSTYGVHWVRQSPGRGLEWLGVIWIGGTTDYNAAFISRLTISKDNSRGQVFFKMDSLQANDTAIYYCARKGYYKYDGGYYYAMDYWGQGTSVTVSS
VL: DIQMTQSSSYLSVSLGGRVTITCKASDHINNWLAWYQQKPGNAPWLLISGATSLETGVPSRFSGSGSGKDYTLSISSLQTEDVATYYCQQYWSTPLTFGAGTKLELK
notes: as for B1
B3: F4.22.6 (antibody, human IgG1, V domains shown)
VH: QVQLQQSGPELVKPGASVKISCKASGYAFSSFWMNWVKQRPGQGLEWIGRIYPGDGDTNYNGKFKGKATLTADKSSTTAYMHLSSLTSVDSAVYFCTRSVITAVVDWYFDVWGAGTTVTVSS
VL: QIVLSQSPAILSASPGEKVTLTCRASSSVNFMHWYQQKPGSSPKPWIYATSNLASGAPARFSGSGSGTSYSLTISRVEAEDAAAYYCQQWSSYPIFTFGSGTKLEIK
notes: as for B1
B4: F4.33.12 (antibody, human IgG1, V domains shown)
VH: QVQLQQSGAELVRPGSSVKISCKGSGYAFSSYWMNWVKQRPGQGLEWIGQIYPGDGDTNYNGKFKGKATLTADKSSSTAYMQLSSLTSEDSAVYFCARAGFYYGSDSSMDYWGQGTSVTVSS
VL: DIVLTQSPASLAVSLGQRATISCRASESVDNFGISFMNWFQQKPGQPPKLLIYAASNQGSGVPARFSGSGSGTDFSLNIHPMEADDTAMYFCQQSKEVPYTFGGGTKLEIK
notes: as for B1
B5: F4.41.1 (antibody, human IgG1, V domains shown)
VH: QVQLQQSGAELVRPGTSVKVSCKASGYAFTNYLIEWVKQRPGQGLEWIGVINPGSGDTLYNEKFKGKATLTADKSSTTAYMQLSGLTSDVSAIYFCARSPPITTIVADYFDYWGQGTTLTVSS
VL: DIQMTQTTSSLSASLGDRVTISCRASQDISNYLNWYQQKPDGTVKLLIYYTSRLHSGVPSRFSGSGSGADYSLTISNLEQEDIATYFCQQGKTLPYTFGGGTKLEIK
notes: as for B1
B6: F4.48.12 (antibody, human IgG1, V domains shown)
VH: QMQLKESGPGLVAPSQSLSITCTVSGFSLTDYGVSWIRQPPGKGLEWLGVIWGSGSTFYNSALTSRLSISKDNSKSQVFLKMNSLQTADTAMYFCAKHHYYGGSFAMDYWGQGTSVTVSS
VL: DIQMTQASSSLSASLGDRVTISCKTSQDISNYLNWYQQKPDGTFKLLIHYTSRLHSGVPSRFSGSGSGSDYSLTISNLEREDIATYFCQQGNSLPYTFGGGTKLEMK
notes: as for B1

Key:
Human CD19-his protein [1] = biological target: T1, Human CD19-his protein; assay: ELISA, antibody at 100 nM
Human CD19-his protein [2] = biological target: T1, Human CD19-his protein; assay: ELISA, antibody at 0.0001 nM
murine CD19 protein = biological target: T2, murine CD19 protein; assay: ELISA, coated murine CD19
In short: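 Plates coated overnight at 4° C with recombinant murine or monkey CD19 and blocked with 2% BSA. Chimeric antibodies, serially diluted from 100 nM, bound for 2 h at 37° C. TMB development for 10 min with OD450 read-out.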

Human CD19-his protein [3] = biological target: T1, Human CD19-his protein; assay: ELISA, antibody at 0.01 nM
Human CD19-his protein [4] = biological target: T1, Human CD19-his protein; assay: ELISA, antibody at 0.001 nM
Human CD19-his protein [5] = biological target: T1, Human CD19-his protein; assay: ELISA, antibody at 0.10 nM
Human CD19-his protein [6] = biological target: T1, Human CD19-his protein; assay: ELISA, antibody at 10 nM
[7] = biological target: T3, human CD19 exon1-3-his protein; assay: ELISA, coated at 2 ug/mL
Human CD19-his protein [8] = biological target: T1, Human CD19-his protein; assay: ELISA on coated human CD19-His
Human CD19-his protein [9] = biological target: T1, Human CD19-his protein; assay: ELISA, antibody at 1.00 nM

Row | Binder | OD450 (Human CD19-his protein [1]) | OD450 (Human CD19-his protein [2]) | binding result (murine CD19 protein) | OD450 (Human CD19-his protein [3]) | OD450 (Human CD19-his protein [4]) | OD450 (Human CD19-his protein [5]) | OD450 (Human CD19-his protein [6]) | binding result [7] | EC50 (read off the curve) (Human CD19-his protein [8]) [nM] | OD450 (Human CD19-his protein [9])
1 | B1 | 1.62 | 0.05 | no binding | 0.12 | 0.07 | 0.58 | 1.87 | no binding | ~0.2 | 1.59
2 | B2 | 1.9 | 0.07 | no binding | 0.29 | 0.1 | 1.1 | 1.94 | no binding | ~0.07 | 1.98
3 | B3 | 0.88 | 0.06 | no binding | 0.17 | 0.08 | 0.62 | 0.96 | no binding | ~0.05 | 0.83
4 | B4 | 1.64 | 0.05 | no binding | 0.11 | 0.06 | 0.51 | 1.72 | no binding | ~0.3 | 1.37
5 | B5 | 0.68 | 0.05 | no binding | 0.07 | 0.05 | 0.16 | 0.61 | no binding | ~0.5 | 0.43
6 | B6 | 1.93 | 0.06 | no binding | 0.38 | 0.09 | 1.56 | 1.76 | no binding | ~0.03 | 1.89

From US20250042994A1 (HAINAN SIMCERE ZAIMING PHARMACEUTICAL, published 2025)
